Test results published in patent US20250051463A1, “CD123 ANTIBODY-DRUG CONJUGATES AND METHODS OF USING THE SAME” (ASTRAZENECA AB, priority 2023, published 2025).

System: healthy donor BMMC
Assay: Colony forming unit (CFU) assay
Type: cell-based, human
Conditions: 24 hours treatment, colonies at 14 days
Procedure: The potency of HT12-GL ADC (HT12-GL-SG3932) was compared to CD33 Mylotarg ADC and isotype ADC in colony forming unit (CFU) assays. For colony forming unit assays, primary healthy donor samples and AML patient samples were subjected to a dose titration of HT12-GL ADC (HT12-GL-SG3932), Isotype ADC, or Mylotarg for 24 hours. Cells were subsequently mixed in Methocult (StemCell) and seeded in 6-well SmartDish's (StemCell). Colonies were counted at 14 days post-seeding using a STEMvision instrument (StemCell). EC50 values were calculated based on the reduction of colonies following drug treatment compared to control groups.

Mylotarg: CD33 ADC Mylotarg [reference compound]
CFU toxicity in healthy donor BMMC: toxic
